Stability data for five molecules are collected here from patent US20260327578A1, “TRANSGLUTAMINASES AND USES THEREOF” (CURIE CO. INC., priority 2023, published 2026).

B1: S5: Tgase variant S2P Q39N Q51E relative to SEQ ID NO: 2 (protein, UniProt P81453 77-407, looked up, variant S2P Q39N Q51E)
Protein-glutamine …: DPDDRVTPPAEPLDRMPDPYRPSYGRAETVVNNYIRKWNQVYSHRDGRKQEMTEEQREWLSYGCVGVTWVNSGQYPTNRLAFASFDEDRFKNELKNGRPRSGETRAEFEGRVAKESFDEEKGFQRAREVASVMNRALENAHDESAYLDNLKKELANGNDALRNEDARSPFYSALRNTPSFKERNGGNHDPSRMKAVIYSKHFWSGQDRSSSADKRKYGDPDAFRPAPGTGLVDMSRDRNIPRSPTSPGEGFVNFDYGWFGAQTEADADKTVWTHGNHYHAPNGSLGAMHVYESKFRNWSEGYSDFDRGAYVITFIPKSWNTAPDKVKQGWP
B2: S8: Tgase variant S2P K49T Q74F relative to SEQ ID NO: 2 (protein, UniProt P81453 77-407, looked up, variant S2P K49T Q74F)
Protein-glutamine …: DPDDRVTPPAEPLDRMPDPYRPSYGRAETVVNNYIRKWQQVYSHRDGRTQQMTEEQREWLSYGCVGVTWVNSGFYPTNRLAFASFDEDRFKNELKNGRPRSGETRAEFEGRVAKESFDEEKGFQRAREVASVMNRALENAHDESAYLDNLKKELANGNDALRNEDARSPFYSALRNTPSFKERNGGNHDPSRMKAVIYSKHFWSGQDRSSSADKRKYGDPDAFRPAPGTGLVDMSRDRNIPRSPTSPGEGFVNFDYGWFGAQTEADADKTVWTHGNHYHAPNGSLGAMHVYESKFRNWSEGYSDFDRGAYVITFIPKSWNTAPDKVKQGWP
B3: S6: Tgase variant S2P Q56M Q74S relative to SEQ ID NO: 2 (protein, UniProt P81453 77-407, looked up, variant S2P Q56M Q74S)
Protein-glutamine …: DPDDRVTPPAEPLDRMPDPYRPSYGRAETVVNNYIRKWQQVYSHRDGRKQQMTEEMREWLSYGCVGVTWVNSGSYPTNRLAFASFDEDRFKNELKNGRPRSGETRAEFEGRVAKESFDEEKGFQRAREVASVMNRALENAHDESAYLDNLKKELANGNDALRNEDARSPFYSALRNTPSFKERNGGNHDPSRMKAVIYSKHFWSGQDRSSSADKRKYGDPDAFRPAPGTGLVDMSRDRNIPRSPTSPGEGFVNFDYGWFGAQTEADADKTVWTHGNHYHAPNGSLGAMHVYESKFRNWSEGYSDFDRGAYVITFIPKSWNTAPDKVKQGWP
B4: S7: Tgase variant S2P K49T Q74M relative to SEQ ID NO: 2 (protein, UniProt P81453 77-407, looked up, variant S2P K49T Q74M)
Protein-glutamine …: DPDDRVTPPAEPLDRMPDPYRPSYGRAETVVNNYIRKWQQVYSHRDGRTQQMTEEQREWLSYGCVGVTWVNSGMYPTNRLAFASFDEDRFKNELKNGRPRSGETRAEFEGRVAKESFDEEKGFQRAREVASVMNRALENAHDESAYLDNLKKELANGNDALRNEDARSPFYSALRNTPSFKERNGGNHDPSRMKAVIYSKHFWSGQDRSSSADKRKYGDPDAFRPAPGTGLVDMSRDRNIPRSPTSPGEGFVNFDYGWFGAQTEADADKTVWTHGNHYHAPNGSLGAMHVYESKFRNWSEGYSDFDRGAYVITFIPKSWNTAPDKVKQGWP
B5: S9: Tgase variant S2P Q51I K95I relative to SEQ ID NO: 2 (protein, UniProt P81453 77-407, looked up, variant S2P Q51I K95I)
Protein-glutamine …: DPDDRVTPPAEPLDRMPDPYRPSYGRAETVVNNYIRKWQQVYSHRDGRKQIMTEEQREWLSYGCVGVTWVNSGQYPTNRLAFASFDEDRFKNELINGRPRSGETRAEFEGRVAKESFDEEKGFQRAREVASVMNRALENAHDESAYLDNLKKELANGNDALRNEDARSPFYSALRNTPSFKERNGGNHDPSRMKAVIYSKHFWSGQDRSSSADKRKYGDPDAFRPAPGTGLVDMSRDRNIPRSPTSPGEGFVNFDYGWFGAQTEADADKTVWTHGNHYHAPNGSLGAMHVYESKFRNWSEGYSDFDRGAYVITFIPKSWNTAPDKVKQGWP

For this assay, the system named is N,N-dimethylcasein. Put plainly: Chemostability: residual Tgase activity after 24 hour incubation at 20-30 °C, normalized to wild-type. It counts as biochemical. As to conditions: improvement relative to wild-type mature Tgase (SEQ ID NO: 2); residual activity after 24 h at 20-30 °C in cell-free extract. On the procedure:
Table 5 depicts variants of Streptomyces mobaraensis Tgase and improvement to stability relative to wild-type mature Tgase (SEQ ID NO. 2) as determined in Example 3. Numbering of amino acid positions is in reference to the mature S. mobaraensis Tgase sequence depicted in SEQ ID NO. 2. A “+” indicates an improvement between 1.2 and 2-fold. A “++” indicates an improvement greater than 2-fold.
To evaluate chemostability, Tgase samples in cell-free extract were assayed for activity, using the assay described in Example 4B, immediately after expression and again following a 24 hour incubation at 20-30° C. Mature Tgase variant residual activity was normalized to the residual activity of the wild-type and results are depicted in Table 5.
Protein functionalization by Tgase variants was determined by the fluorogenic labeling of casein using monodansylcadaverine (e.g., a commercially available kit such as the Transglutaminase Fluorogenic Activity Assay Kit, T036, Zedira, Germany). Tgase activity was monitored by measuring fluorescence (excitation wavelength 332 nm; emission wavelength 500 nm) using a BioTek Synergy H1 microplate reader. Transglutaminase-catalyzed covalent coupling (crosslinking) of monodansylcadaverine with N,N-dimethylcasein produces a product that causes a shift in intensity and wavelength of fluorescence of the dansyl group now linked to the casein. The relative transglutaminase activity is shown by increase of fluorescence intensity over time. Enzyme variant loading was optimized based on expression levels, ensuring enzyme was the rate limiting factor. Briefly, cell-free reactions (set up as described in Example 2A) were first diluted 10-fold using phosphate buffer, pH 7.4, and a 5 microliter aliquot was analyzed.
As to B1, the Stability entry is “+ (an improvement between 1.2 and 2-fold)”.
For B2 the value was “+ (an improvement between 1.2 and 2-fold)”; for B3, “++ (an improvement greater than 2-fold)”; for B4, “+ (an improvement between 1.2 and 2-fold)”.
Regarding B5, the Stability result is “+ (an improvement between 1.2 and 2-fold)”.
